# Data as given in publication PMC12142670.
# Where two headings read alike, the source gives them in different places.
# What was measured:
# [1] = target: hinge-deleted human IgG4 anti-epidermal growth factor receptor (EGFR) antibody (IgG4Δhinge), L368A variant (human); test: native MS; variable-temperature ESI native MS (vT-ESI-MS); 2.5 uM antibody in 150 mM ammonium acetate pH 7.5; continuous ramp from 30 to 100 °C at 2 °C/min; full noncovalent antibody to two half antibodies
# [2] = target: hinge-deleted human IgG4 anti-epidermal growth factor receptor (EGFR) antibody (IgG4Δhinge), L368A variant (human); test: as above; remark: listed apart in the source
# [3] = target: hinge-deleted human IgG4 anti-epidermal growth factor receptor (EGFR) antibody (IgG4Δhinge), R409K variant (human); test: as above
# [4] = target: IgG4 heavy chain CH3 (Homo sapiens) [IgG part: P01861]; conditions: cited from earlier work
# Sequence of IgG4 heavy chain CH3 (P01861 218-328): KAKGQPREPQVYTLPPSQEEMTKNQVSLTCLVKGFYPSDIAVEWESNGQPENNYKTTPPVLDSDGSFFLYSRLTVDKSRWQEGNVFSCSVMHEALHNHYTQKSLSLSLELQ
substance,measurement,setting,value
"hinge-deleted human IgG4 anti-epidermal growth factor receptor (EGFR) antibody (IgG4Δhinge), L368A variant",T1/2 (dissociation temperature of the full antibody into half antibodies),[1],53 °C
same,T1/2 (dissociation temperature of the full antibody into half antibodies),[2],52 °C
"hinge-deleted human IgG4 anti-epidermal growth factor receptor (EGFR) antibody (IgG4Δhinge), R409K variant",T1/2 (dissociation temperature of the full antibody into half antibodies),[3],77 °C
IgG4 heavy chain CH3 (from UniProt P01861),Kd,[4],49.7 nM
